Results taken from publication doi:10.1101/2024.07.03.601791.

Biological target: Kapβ2 Δloop (human) (UniProt Q92973)
Experiment: AUC

Sequence of Kapβ2 Δloop (human) (Q92973 9-898, stated change not applied): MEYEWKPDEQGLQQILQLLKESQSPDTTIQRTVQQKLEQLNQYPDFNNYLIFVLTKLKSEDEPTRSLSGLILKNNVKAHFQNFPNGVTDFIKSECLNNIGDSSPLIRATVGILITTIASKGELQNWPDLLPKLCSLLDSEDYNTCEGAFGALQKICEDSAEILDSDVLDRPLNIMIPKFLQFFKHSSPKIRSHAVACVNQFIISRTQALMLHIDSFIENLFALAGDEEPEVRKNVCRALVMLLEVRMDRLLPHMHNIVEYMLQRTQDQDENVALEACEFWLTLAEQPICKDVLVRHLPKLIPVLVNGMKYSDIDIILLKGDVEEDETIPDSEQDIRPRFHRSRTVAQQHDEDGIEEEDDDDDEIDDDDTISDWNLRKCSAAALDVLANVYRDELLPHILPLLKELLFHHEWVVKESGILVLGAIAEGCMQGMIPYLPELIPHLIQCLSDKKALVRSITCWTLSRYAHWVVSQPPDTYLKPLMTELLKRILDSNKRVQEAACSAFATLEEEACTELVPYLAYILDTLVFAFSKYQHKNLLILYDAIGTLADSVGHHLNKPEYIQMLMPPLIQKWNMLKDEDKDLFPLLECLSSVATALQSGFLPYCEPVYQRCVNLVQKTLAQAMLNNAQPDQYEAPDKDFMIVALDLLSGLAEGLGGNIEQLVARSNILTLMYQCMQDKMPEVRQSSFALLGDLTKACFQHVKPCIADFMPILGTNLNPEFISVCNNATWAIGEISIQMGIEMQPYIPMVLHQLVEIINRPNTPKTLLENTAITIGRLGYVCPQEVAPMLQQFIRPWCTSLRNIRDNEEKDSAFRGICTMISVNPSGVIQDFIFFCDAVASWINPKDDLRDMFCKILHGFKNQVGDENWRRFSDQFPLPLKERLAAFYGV

Binder PRPRPRPRPRPRPRPRPRPRPRPRPRPRPRPRPRPR [maltose-binding protein (MBP)-PR18] has a stoichiometry N of 1.
